Results from patent US20190017997.
Residue numbers refer to the chain shown, from its start. Names and notes keep the numbering of the source.

T1: CRTC1 S151A
T1 chain: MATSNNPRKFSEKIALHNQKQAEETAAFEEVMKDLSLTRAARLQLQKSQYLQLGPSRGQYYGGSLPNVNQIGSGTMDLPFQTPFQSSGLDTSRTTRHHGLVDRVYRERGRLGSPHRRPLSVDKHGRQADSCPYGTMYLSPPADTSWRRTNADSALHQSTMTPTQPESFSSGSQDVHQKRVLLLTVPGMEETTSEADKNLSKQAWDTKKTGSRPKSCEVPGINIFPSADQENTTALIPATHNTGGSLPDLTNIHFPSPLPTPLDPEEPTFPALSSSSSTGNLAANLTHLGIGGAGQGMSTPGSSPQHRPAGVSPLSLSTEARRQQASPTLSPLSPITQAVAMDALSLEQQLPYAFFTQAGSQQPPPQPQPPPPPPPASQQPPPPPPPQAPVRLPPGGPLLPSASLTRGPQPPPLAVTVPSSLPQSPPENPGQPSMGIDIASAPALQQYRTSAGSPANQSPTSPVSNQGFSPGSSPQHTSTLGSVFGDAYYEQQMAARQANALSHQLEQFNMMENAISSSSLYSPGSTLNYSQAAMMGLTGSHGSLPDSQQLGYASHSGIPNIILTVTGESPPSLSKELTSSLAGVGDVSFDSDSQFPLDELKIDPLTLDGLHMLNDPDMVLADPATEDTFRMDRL

T2: CRTC1 S151A/T449A
T2 chain: T1 chain with T449A

T3: CRTC1 (CREB-regulated transcription coactivator 1)
T3 chain: T1 chain with A151S

T4: CRTC1 S151A/S215A
T4 chain: T1 chain with S215A

B1: PAK4 (p21-activated kinase 4) (protein)
chain: MFGKRKKRVEISAPSNFEHRVHTGFDQHEQKFTGLPRQWQSLIEESARRPKPLVDPACITSIQPGAPKTIVRGSKGAKDGALTLLLDEFENMSVTRSNSLRRDSPPPPARARQENGMPEEPATTARGGPGKAGSRGRFAGHSEAGGGSGDRRRAGPEKRPKSSREGSGGPQESSRDKRPLSGPDVGTPQPAGLASGAKLAAGRPFNTYPRADTDHPSRGAQGEPHDVAPNGPSAGGLAIPQSSSSSSRPPTRARGAPSPGVLGPHASEPQLAPPACTPAAPAVPGPPGPRSPQREPQRVSHEQFRAALQLVVDPGDPRSYLDNFIKIGEGSTGIVCIATVRSSGKLVAVKKMDLRKQQRRELLFNEVVIMRDYQHENVVEMYNSYLVGDELWVVMEFLEGGALTDIVTHTRMNEEQIAAVCLAVLQALSVLHAQGVIHRDIKSDSILLTHDGRVKLSDFGFCAQVSKEVPRRKSLVGTPYWMAPELISRLPYGPEVDIWSLGIMVIEMVDGEPPYFNEPPLKAMKMIRDNLPPRLKNLHKVSPSLKGFLDRLLVRDPAQRATAAELLKHPFLAKAGPPASIVPLMRQNRTR
B2: caPAK4 (PAK4 S445N/S474E, constitutively active PAK4) (protein)
chain: B1 chain with S445N, S474E

Key:
CRTC1 S151A = molecular target: T1, CRTC1 S151A
CRTC1 S151A/T449A = molecular target: T2, CRTC1 S151A/T449A
[1] = molecular target: CREB (cyclic adenosine 3',5'-monophosphate response element-binding protein), P16220
[2] = molecular target: T3, CRTC1 (CREB-regulated transcription …)
CRTC1 S151A/S215A = molecular target: T4, CRTC1 S151A/S215A

Chain of CREB (cyclic adenosine 3',5'-monophosphate response element-binding protein), P16220 (P16220 whole entry): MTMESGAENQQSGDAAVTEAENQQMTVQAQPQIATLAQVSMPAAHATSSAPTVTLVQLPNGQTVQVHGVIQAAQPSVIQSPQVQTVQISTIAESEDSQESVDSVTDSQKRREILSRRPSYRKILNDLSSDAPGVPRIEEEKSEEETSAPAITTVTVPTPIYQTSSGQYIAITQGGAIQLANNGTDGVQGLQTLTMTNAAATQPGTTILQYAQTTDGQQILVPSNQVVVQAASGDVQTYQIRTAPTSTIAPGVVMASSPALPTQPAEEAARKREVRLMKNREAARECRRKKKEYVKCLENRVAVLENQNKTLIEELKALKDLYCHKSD

Protein | phosphorylation by PAK4 (kinase analysis of CRTC1 variants) (CRTC1 S151A) | phosphorylation by PAK4 (kinase analysis of CRTC1 variants) (CRTC1 S151A/T449A) | phosphorylation of CREB [1] | phosphorylation of CRTC1 (in vitro kinase assay) [2] | phosphorylation by PAK4 (kinase analysis of CRTC1 variants) (CRTC1 S151A/S215A) | substrate of the kinase (kinase analysis) [2]
B1 | CRTC1^S151A and CRTC1^S151A/T449A were slightly phosphorylated | CRTC1^S151A and CRTC1^S151A/T449A were slightly phosphorylated | PAK4 does not induce phosphorylation of CREB | PAK4 phosphorylates CRTC1 | CRTC1^S151A/S215A, was not phosphorylated | 
B2 |  |  |  |  |  | CRTC1 is a substrate of caPAK4
